Results from paper PMC7610652 (Nature structural & molecular biology, 2021).

Legend:
[1] = target: RPABC5, subunit of human RNA polymerase III (human, UniProt P62875 1-67); assay: cryo-EM structure
[2] = target: T1, RPC2, subunit of human RNA polymerase III (human, UniProt Q9NW08 1-1133); assay: cryo-EM structure
T1 sequence: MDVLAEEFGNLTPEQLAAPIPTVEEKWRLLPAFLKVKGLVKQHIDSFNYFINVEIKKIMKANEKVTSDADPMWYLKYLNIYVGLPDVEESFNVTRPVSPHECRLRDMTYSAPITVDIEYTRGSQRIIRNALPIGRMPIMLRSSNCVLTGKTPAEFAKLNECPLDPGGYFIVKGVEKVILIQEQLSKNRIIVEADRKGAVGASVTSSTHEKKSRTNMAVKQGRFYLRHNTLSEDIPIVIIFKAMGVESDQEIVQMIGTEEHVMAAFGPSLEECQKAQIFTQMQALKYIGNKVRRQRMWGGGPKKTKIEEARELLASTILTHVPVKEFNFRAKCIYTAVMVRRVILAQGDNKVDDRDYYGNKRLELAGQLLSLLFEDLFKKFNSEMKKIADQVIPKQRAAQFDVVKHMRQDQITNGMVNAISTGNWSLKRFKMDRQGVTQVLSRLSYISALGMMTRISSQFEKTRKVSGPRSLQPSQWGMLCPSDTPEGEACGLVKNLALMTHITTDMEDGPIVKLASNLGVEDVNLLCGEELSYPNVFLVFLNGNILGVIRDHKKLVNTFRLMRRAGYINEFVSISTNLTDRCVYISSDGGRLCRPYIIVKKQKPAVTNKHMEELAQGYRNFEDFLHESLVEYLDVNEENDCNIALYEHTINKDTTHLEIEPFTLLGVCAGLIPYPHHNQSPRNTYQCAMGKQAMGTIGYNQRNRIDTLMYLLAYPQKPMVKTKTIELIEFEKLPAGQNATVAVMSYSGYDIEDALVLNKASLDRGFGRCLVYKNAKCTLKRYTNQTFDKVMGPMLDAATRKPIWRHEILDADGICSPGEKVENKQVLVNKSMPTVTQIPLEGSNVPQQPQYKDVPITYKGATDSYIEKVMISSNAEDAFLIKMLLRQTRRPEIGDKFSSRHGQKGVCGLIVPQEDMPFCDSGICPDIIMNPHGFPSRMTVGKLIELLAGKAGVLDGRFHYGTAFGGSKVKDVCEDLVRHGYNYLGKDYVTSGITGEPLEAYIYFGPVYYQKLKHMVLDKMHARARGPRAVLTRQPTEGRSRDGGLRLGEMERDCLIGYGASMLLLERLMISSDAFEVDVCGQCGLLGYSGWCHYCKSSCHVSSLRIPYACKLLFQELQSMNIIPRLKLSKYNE

B1: RPC5, subunit of the human RNA polymerase III heterodimer (natural protein)
chain: MANEEDDPVVQEIDVYLAKSLAEKLYLFQYPVRPASMTYDDIPHLSAKIKPKQQKVELEMAIDTLNPNYCRSKGEQIALNVDGACADETSTYSSKLMDKQTFCSSQTTSNTSRYAAALYRQGELHLTPLHGILQLRPSFSYLDKADAKHREREAANEAGDSSQDEAEDDVKQITVRFSRPESEQARQRRVQSYEFLQKKHAEEPWVHLHYYGLRDSRSEHERQYLLCPGSSGVENTELVKSPSEYLMMLMPPSQEEEKDKPVAPSNVLSMAQLRTLPLADQIKILMKNVKVMPFANLMSLLGPSIDSVAVLRGIQKVAMLVQGNWVVKSDILYPKDSSSPHSGVPAEVLCRGRDFVMWKFTQSRWVVRKEVATVTKLCAEDVKDFLEHMAVVRINKGWEFILPYDGEFIKKHPDVVQRQHMLWTGIQAKLEKVYNLVKETMPKKPDAQSGPAGLVCGDQRIQVAKTKAQQNHALLERELQRRKEQLRVPAVPPGVRIKEEPVSEEGEEDEEQEAEEEPMDTSPSGLHSKLANGLPLGRAAGTDSFNGHPPQGCASTPVARELKAFVEATFQRQFVLTLSELKRLFNLHLASLPPGHTLFSGISDRMLQDTVLAAGCKQILVPFPPQTAASPDEQKVFALWESGDMSDQHRQVLLEIFSKNYRVRRNMIQSRLTQECGEDLSKQEVDKVLKDCCVSYGGMWYLKGTVQS
**Q.** Does B1 bind [1]?
**A.** binds

**Q.** Does B1 bind [2]?
**A.** binds
